Laboratory results as given in patent publication US7008922 (RIJKSUNIVERSITEIT TE LEIDEN, dated 2006).

Biological target: purified HLA-B7 (human)
Assay: competition with iodinated … for purified HLA-B7

B1: SMCY peptide SPSVDKARAEL (peptide)
peptide: SPSVDKARAEL
notes: also called H-Y peptide; peptide 1171
B1 showed an IC50 of 34 nM.

B2: SMCX peptide SPAVDKAQAEL (peptide)
peptide: SPAVDKAQAEL
notes: Synthetic, HPLC-purified peptide; Differs from the SMCY peptide by A for S at position 3 and Q for R at position 8; also called peptide derived from the X chromosomal homolog SMCX (XE169)
B2 gave an IC50 of 140 nM.
